The values below come from patent publication US6825167.

Assay [1] addresses αvβ3 integrin (human) (UniProt P06756). In words: cell-based or functional assay.
For assay [2] the target is unchanged. In words: attachment of αvβ3-expressing WM35 cells to wells coated at 1 nmole/well, Cell Counting Kit-8. (Tetrazolium dyes change colour on reduction, which living cells bring about.)

Chain of UniProt P06756 (P06756 31-1048, chain 1 of 2): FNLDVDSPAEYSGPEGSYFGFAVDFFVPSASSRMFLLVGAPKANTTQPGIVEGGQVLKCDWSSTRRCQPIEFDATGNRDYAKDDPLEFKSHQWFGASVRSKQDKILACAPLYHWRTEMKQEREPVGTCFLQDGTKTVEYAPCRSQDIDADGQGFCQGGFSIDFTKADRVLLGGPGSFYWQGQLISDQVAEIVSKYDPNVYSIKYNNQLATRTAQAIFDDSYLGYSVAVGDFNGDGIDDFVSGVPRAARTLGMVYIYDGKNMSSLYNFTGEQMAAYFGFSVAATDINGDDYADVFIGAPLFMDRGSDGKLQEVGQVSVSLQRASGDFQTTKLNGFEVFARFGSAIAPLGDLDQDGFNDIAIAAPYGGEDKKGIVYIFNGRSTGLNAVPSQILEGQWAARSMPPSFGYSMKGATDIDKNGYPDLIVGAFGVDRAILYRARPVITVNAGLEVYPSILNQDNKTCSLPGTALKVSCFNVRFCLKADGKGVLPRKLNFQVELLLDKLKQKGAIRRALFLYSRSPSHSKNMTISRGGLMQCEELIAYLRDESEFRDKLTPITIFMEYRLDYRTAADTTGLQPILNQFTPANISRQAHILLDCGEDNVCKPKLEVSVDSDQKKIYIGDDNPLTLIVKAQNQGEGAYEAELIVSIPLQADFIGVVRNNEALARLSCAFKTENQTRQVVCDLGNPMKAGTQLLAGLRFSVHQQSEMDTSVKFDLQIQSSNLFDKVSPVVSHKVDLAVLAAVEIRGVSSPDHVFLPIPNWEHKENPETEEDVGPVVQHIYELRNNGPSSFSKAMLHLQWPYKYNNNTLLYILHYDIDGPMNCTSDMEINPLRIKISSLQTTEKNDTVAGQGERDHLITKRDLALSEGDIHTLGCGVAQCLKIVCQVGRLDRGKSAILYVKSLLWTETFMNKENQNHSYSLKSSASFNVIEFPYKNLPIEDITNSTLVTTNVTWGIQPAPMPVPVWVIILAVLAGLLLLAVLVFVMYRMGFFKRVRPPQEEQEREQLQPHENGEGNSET
Chain of UniProt P06756 (P05106 27-788, chain 2 of 2, further chain): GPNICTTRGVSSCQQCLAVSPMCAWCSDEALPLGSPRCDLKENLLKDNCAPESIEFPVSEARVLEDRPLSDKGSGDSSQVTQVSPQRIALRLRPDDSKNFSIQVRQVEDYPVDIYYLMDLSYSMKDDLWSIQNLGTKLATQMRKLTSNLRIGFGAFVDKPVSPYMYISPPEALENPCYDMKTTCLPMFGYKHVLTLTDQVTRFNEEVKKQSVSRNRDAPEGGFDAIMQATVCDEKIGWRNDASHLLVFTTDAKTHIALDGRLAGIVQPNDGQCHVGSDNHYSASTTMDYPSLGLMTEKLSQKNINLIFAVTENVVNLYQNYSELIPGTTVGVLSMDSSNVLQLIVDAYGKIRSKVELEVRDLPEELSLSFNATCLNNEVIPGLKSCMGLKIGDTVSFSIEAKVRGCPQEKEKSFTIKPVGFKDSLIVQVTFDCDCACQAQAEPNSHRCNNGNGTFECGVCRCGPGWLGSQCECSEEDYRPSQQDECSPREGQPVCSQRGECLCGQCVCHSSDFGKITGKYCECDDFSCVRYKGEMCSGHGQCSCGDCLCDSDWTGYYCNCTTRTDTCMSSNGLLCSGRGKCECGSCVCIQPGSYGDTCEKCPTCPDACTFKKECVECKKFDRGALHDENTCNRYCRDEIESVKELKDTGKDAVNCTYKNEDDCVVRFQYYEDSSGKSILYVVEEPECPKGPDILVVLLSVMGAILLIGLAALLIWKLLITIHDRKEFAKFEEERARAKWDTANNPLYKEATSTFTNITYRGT

As for “RGD-human endostatin (from UniProt P39060 1572-1754)”, in the assay with αvβ3 integrin (human) [1], the HUVEC attachment to coated wells (100% = gelatin-coated wells) amounted to 80%, the direct binding of [125I]-RGD-endostatin to HUVEC (pmole per 10^6 cells) came out at 1.2 pmol and the increase of HUVEC attachment over native endostatin was 40%. For the same substance, the percent of cells attached (100% = gelatin-coated wells) with αvβ3 integrin (human) [2] was 60%.

Substance “human endostatin (from UniProt P39060 1572-1754)” yielded a percent of cells attached (100% = gelatin-coated wells) in the assay with αvβ3 integrin (human) [2] of 18%.

Turning to “human endostatin-RGD (from UniProt P39060 1572-1754)”, in the assay with αvβ3 integrin (human) [1], the HUVEC attachment to coated wells (100% = gelatin-coated wells) stood at 80% and the increase of HUVEC attachment over native endostatin was found to be 40%.
